Measured values as given in paper PMC5704011.

T1: human recombinant VEGFR2 (human), P35968
T1 chain: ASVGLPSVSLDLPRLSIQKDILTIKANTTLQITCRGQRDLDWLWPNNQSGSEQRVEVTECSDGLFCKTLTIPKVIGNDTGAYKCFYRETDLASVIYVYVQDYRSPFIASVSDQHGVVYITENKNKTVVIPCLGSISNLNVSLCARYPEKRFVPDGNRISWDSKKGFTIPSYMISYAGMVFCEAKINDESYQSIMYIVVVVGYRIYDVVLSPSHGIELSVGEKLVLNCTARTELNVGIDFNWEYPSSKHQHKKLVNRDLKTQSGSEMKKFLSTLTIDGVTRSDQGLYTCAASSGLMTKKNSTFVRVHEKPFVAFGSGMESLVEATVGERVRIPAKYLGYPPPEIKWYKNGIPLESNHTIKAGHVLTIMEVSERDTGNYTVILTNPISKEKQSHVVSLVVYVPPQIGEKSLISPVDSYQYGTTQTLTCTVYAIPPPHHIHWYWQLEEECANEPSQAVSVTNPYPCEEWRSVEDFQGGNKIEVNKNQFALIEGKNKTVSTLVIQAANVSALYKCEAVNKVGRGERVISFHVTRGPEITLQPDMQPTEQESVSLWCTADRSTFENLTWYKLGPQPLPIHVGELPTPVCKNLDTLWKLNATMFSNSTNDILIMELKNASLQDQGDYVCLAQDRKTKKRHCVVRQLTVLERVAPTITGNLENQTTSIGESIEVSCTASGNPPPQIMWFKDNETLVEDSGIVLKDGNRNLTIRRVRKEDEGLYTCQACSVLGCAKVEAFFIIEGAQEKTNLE

T2: human recombinant PDGFRβ (human), P09619
T2 chain: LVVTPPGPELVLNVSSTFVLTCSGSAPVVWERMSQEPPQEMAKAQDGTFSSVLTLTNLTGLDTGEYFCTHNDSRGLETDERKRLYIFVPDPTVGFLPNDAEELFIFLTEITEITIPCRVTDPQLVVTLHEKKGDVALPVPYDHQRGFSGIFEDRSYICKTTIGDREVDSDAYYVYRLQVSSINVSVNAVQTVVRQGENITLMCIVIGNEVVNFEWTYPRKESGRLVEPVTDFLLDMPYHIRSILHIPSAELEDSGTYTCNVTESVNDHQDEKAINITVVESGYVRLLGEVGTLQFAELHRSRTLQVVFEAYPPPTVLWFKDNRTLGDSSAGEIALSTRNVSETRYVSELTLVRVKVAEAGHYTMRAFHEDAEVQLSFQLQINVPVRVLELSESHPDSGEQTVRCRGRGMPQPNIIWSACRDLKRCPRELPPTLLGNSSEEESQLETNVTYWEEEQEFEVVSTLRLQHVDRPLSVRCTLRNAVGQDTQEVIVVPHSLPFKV


How the values were obtained:
Details in all cases: remark: other sources report otherwise
[1] = biological target: T1, human recombinant VEGFR2 (human), P35968; test: SPR; BIAcore 3000, 25 °C, CM5 chip; receptor immobilised by amine coupling (~200-500 R.U.); ligand injected at 10, 20 and 40 nM, 30 uL/min, 10 min dissociation; HBS-EP pH 7.4 (10 mM HEPES, 3 mM EDTA, 150 mM NaCl, 0.005% TWEEN-20); angiopoietin-4 reference cell subtracted; global 1:1 Langmuir fit; χ2-to-Rmax > 1.0 or negative association curves taken as no true interaction
[2] = biological target: T2, human recombinant PDGFRβ (human), P09619; test: SPR; BIAcore 3000, 25 °C, CM5 chip; receptor immobilised by amine coupling (~200-500 R.U.); ligand injected at 40, 20 and 10 nM in HBS-EP pH 7.4 (10 mM HEPES, 3 mM EDTA, 150 mM NaCl, 0.005% TWEEN-20); angiopoietin-4 reference cell subtracted; global 1:1 Langmuir fit; χ^2-to-Rmax < 1.0 taken as a true interaction
[3] = biological target: T1, human recombinant VEGFR2 (human), P35968; test: as above

| koff [1] | kon [1] | Kd [2] | Kd [3] | Binder |
| --- | --- | --- | --- | --- |
| 2.6e-05 s⁻¹ | 36000 M⁻¹ s⁻¹ | – | – | human recombinant PDGF-CC, Q9NRA1 23-345 (ligand, here or on the partner: disulfide-linked homodimer; limits not given, active growth factor domain after cleavage at Arg234 taken by convention) VVDLNLLTEEVRLYSCTPRNFSVSIREELKRTDTIFWPGCLLVKRCGGNCACCLHNCNECQCVPSKVTKKYHEVLQLRPKTGVRGLHKSLTDVALEHHEECDCVCRGSTGG |
| – | – | 1.9 nM | 0.07 nM | human recombinant PDGF-CC, Q9NRA1 235-345 (ligand) VVDLNLLTEEVRLYSCTPRNFSVSIREELKRTDTIFWPGCLLVKRCGGNCACCLHNCNECQCVPSKVTKKYHEVLQLRPKTGVRGLHKSLTDVALEHHEECDCVCRGSTGG |
